Here are results for 36 variants from the RNAGym collection of RNA variant scans (doi:10.1021/acssynbio.7b00057).

B1: Pistol ribozyme (parent)
chain: GGGUCGUUGUUCCAUAAUCGCGUGGAUAUGGCACGCAAGUUUCUACCGGGCACCGUAAAUGUCCGACUGGAGCCGUUCGGGCGGCUAUAAACAGACCUCAGGCCCGAAGCGUGGCGGCACCUGCCGCCGGUGGUAAAAAAGAUCGGAAGAGCACACGUCU

This data set covers variants of B1. In words: aptazyme ON/OFF ratio, guanine; higher = stronger switching; co-transcriptional cleavage with and without guanine.
For the variant GGGUCGGGGGGCCAUAAUCGCGUGGAUAUGGCACGCAAGUUUCUACCGGGCACCGUAAAUGUCCGACUGGAGCCGUUCGGGCGGCUAUAAACAGACCUCAGGCCCGAAGCGUGGCGGCACCUGCCGCCGGUGGUAAAAAAGAUCGGAAGAGCACACGUCU, the “aptazyme ON/OFF ratio” value stood at 1.39.
With GGGUCGGGGGGAAAUAAUCGCGUGGAUAUGGCACGCAAGUUUCUACCGGGCACCGUAAAUGUCCGACUGGAGCCGUUCGGGCGGCUAUAAACAGACCUCAGGCCCGAAGCGUGGCGGCACCUGCCGCCGGUGGUAAAAAAGAUCGGAAGAGCACACGUCU, the “aptazyme ON/OFF ratio” value amounted to 1.25.
The result for GGGUCGGGGGGAUAUAAUCGCGUGGAUAUGGCACGCAAGUUUCUACCGGGCACCGUAAAUGUCCGACUGGAGCCGUUCGGGCGGCUAUAAACAGACCUCAGGCCCGAAGCGUGGCGGCACCUGCCGCCGGUGGUAAAAAAGAUCGGAAGAGCACACGUCU reads 1.33.
Take GGGUCGGGGGGAGAUAAUCGCGUGGAUAUGGCACGCAAGUUUCUACCGGGCACCGUAAAUGUCCGACUGGAGCCGUUCGGGCGGCUAUAAACAGACCUCAGGCCCGAAGCGUGGCGGCACCUGCCGCCGGUGGUAAAAAAGAUCGGAAGAGCACACGUCU: the “aptazyme ON/OFF ratio” value worked out at 1.03.
Regarding GGGUCGGGGGCUUAUAAUCGCGUGGAUAUGGCACGCAAGUUUCUACCGGGCACCGUAAAUGUCCGACUGGAGCCGUUCGGGCGGCUAUAAACAGACCUCAGGCCCGAAGCGUGGCGGCACCUGCCGCCGGUGGUAAAAAAGAUCGGAAGAGCACACGUCU, the “aptazyme ON/OFF ratio” value was 1.36.
In the case of GGGUCGGGGGCUGAUAAUCGCGUGGAUAUGGCACGCAAGUUUCUACCGGGCACCGUAAAUGUCCGACUGGAGCCGUUCGGGCGGCUAUAAACAGACCUCAGGCCCGAAGCGUGGCGGCACCUGCCGCCGGUGGUAAAAAAGAUCGGAAGAGCACACGUCU it was 1.15; in that of GGGUCGGGGUAGGAUAAUCGCGUGGAUAUGGCACGCAAGUUUCUACCGGGCACCGUAAAUGUCCGACUGGAGCCGUUCGGGCGGCUAUAAACAGACCUCAGGCCCGAAGCGUGGCGGCACCUGCCGCCGGUGGUAAAAAAGAUCGGAAGAGCACACGUCU, 1.15; in that of GGGUCGGGGUAGUAUAAUCGCGUGGAUAUGGCACGCAAGUUUCUACCGGGCACCGUAAAUGUCCGACUGGAGCCGUUCGGGCGGCUAUAAACAGACCUCAGGCCCGAAGCGUGGCGGCACCUGCCGCCGGUGGUAAAAAAGAUCGGAAGAGCACACGUCU, 1.33.
As for GGGUCGGGGUAGAAUAAUCGCGUGGAUAUGGCACGCAAGUUUCUACCGGGCACCGUAAAUGUCCGACUGGAGCCGUUCGGGCGGCUAUAAACAGACCUCAGGCCCGAAGCGUGGCGGCACCUGCCGCCGGUGGUAAAAAAGAUCGGAAGAGCACACGUCU, the “aptazyme ON/OFF ratio” value worked out at 1.11.
In the case of GGGUCGGGGUAUCAUAAUCGCGUGGAUAUGGCACGCAAGUUUCUACCGGGCACCGUAAAUGUCCGACUGGAGCCGUUCGGGCGGCUAUAAACAGACCUCAGGCCCGAAGCGUGGCGGCACCUGCCGCCGGUGGUAAAAAAGAUCGGAAGAGCACACGUCU, the “aptazyme ON/OFF ratio” value was 1.38.
Regarding GGGUCGGGGUAGCAUAAUCGCGUGGAUAUGGCACGCAAGUUUCUACCGGGCACCGUAAAUGUCCGACUGGAGCCGUUCGGGCGGCUAUAAACAGACCUCAGGCCCGAAGCGUGGCGGCACCUGCCGCCGGUGGUAAAAAAGAUCGGAAGAGCACACGUCU, the “aptazyme ON/OFF ratio” value is 1.43.
Regarding GGGUCGGGGUAACAUAAUCGCGUGGAUAUGGCACGCAAGUUUCUACCGGGCACCGUAAAUGUCCGACUGGAGCCGUUCGGGCGGCUAUAAACAGACCUCAGGCCCGAAGCGUGGCGGCACCUGCCGCCGGUGGUAAAAAAGAUCGGAAGAGCACACGUCU, the “aptazyme ON/OFF ratio” value was 1.36.
As for GGGUCGGGGGGCUAUAAUCGCGUGGAUAUGGCACGCAAGUUUCUACCGGGCACCGUAAAUGUCCGACUGGAGCCGUUCGGGCGGCUAUAAACAGACCUCAGGCCCGAAGCGUGGCGGCACCUGCCGCCGGUGGUAAAAAAGAUCGGAAGAGCACACGUCU, the “aptazyme ON/OFF ratio” value is 1.37.
With GGGUCGGGGGGCGAUAAUCGCGUGGAUAUGGCACGCAAGUUUCUACCGGGCACCGUAAAUGUCCGACUGGAGCCGUUCGGGCGGCUAUAAACAGACCUCAGGCCCGAAGCGUGGCGGCACCUGCCGCCGGUGGUAAAAAAGAUCGGAAGAGCACACGUCU, the “aptazyme ON/OFF ratio” value came to 1.13.
As to GGGUCGGGGGGCAAUAAUCGCGUGGAUAUGGCACGCAAGUUUCUACCGGGCACCGUAAAUGUCCGACUGGAGCCGUUCGGGCGGCUAUAAACAGACCUCAGGCCCGAAGCGUGGCGGCACCUGCCGCCGGUGGUAAAAAAGAUCGGAAGAGCACACGUCU, the “aptazyme ON/OFF ratio” value stood at 1.62.
In the case of GGGUCGGGGUAUGAUAAUCGCGUGGAUAUGGCACGCAAGUUUCUACCGGGCACCGUAAAUGUCCGACUGGAGCCGUUCGGGCGGCUAUAAACAGACCUCAGGCCCGAAGCGUGGCGGCACCUGCCGCCGGUGGUAAAAAAGAUCGGAAGAGCACACGUCU it was 1.36.
As for GGGUCGGGGUAUAAUAAUCGCGUGGAUAUGGCACGCAAGUUUCUACCGGGCACCGUAAAUGUCCGACUGGAGCCGUUCGGGCGGCUAUAAACAGACCUCAGGCCCGAAGCGUGGCGGCACCUGCCGCCGGUGGUAAAAAAGAUCGGAAGAGCACACGUCU, the “aptazyme ON/OFF ratio” value is 1.56.
The result for GGGUCGGGGUAUUAUAAUCGCGUGGAUAUGGCACGCAAGUUUCUACCGGGCACCGUAAAUGUCCGACUGGAGCCGUUCGGGCGGCUAUAAACAGACCUCAGGCCCGAAGCGUGGCGGCACCUGCCGCCGGUGGUAAAAAAGAUCGGAAGAGCACACGUCU reads 1.15; that for GGGUCGGGGGGGCAUAAUCGCGUGGAUAUGGCACGCAAGUUUCUACCGGGCACCGUAAAUGUCCGACUGGAGCCGUUCGGGCGGCUAUAAACAGACCUCAGGCCCGAAGCGUGGCGGCACCUGCCGCCGGUGGUAAAAAAGAUCGGAAGAGCACACGUCU, 1.26; that for GGGUCGGGGGGACAUAAUCGCGUGGAUAUGGCACGCAAGUUUCUACCGGGCACCGUAAAUGUCCGACUGGAGCCGUUCGGGCGGCUAUAAACAGACCUCAGGCCCGAAGCGUGGCGGCACCUGCCGCCGGUGGUAAAAAAGAUCGGAAGAGCACACGUCU, 1.23.
With GGGUCGGGGGGUCAUAAUCGCGUGGAUAUGGCACGCAAGUUUCUACCGGGCACCGUAAAUGUCCGACUGGAGCCGUUCGGGCGGCUAUAAACAGACCUCAGGCCCGAAGCGUGGCGGCACCUGCCGCCGGUGGUAAAAAAGAUCGGAAGAGCACACGUCU, the “aptazyme ON/OFF ratio” value is 1.36.
The result for GGGUCGGGGGGGAAUAAUCGCGUGGAUAUGGCACGCAAGUUUCUACCGGGCACCGUAAAUGUCCGACUGGAGCCGUUCGGGCGGCUAUAAACAGACCUCAGGCCCGAAGCGUGGCGGCACCUGCCGCCGGUGGUAAAAAAGAUCGGAAGAGCACACGUCU reads 1.42.
In the case of GGGUCGGGGGGGUAUAAUCGCGUGGAUAUGGCACGCAAGUUUCUACCGGGCACCGUAAAUGUCCGACUGGAGCCGUUCGGGCGGCUAUAAACAGACCUCAGGCCCGAAGCGUGGCGGCACCUGCCGCCGGUGGUAAAAAAGAUCGGAAGAGCACACGUCU, the “aptazyme ON/OFF ratio” value turned out to be 1.31.
Regarding GGGUCGGGGGGGGAUAAUCGCGUGGAUAUGGCACGCAAGUUUCUACCGGGCACCGUAAAUGUCCGACUGGAGCCGUUCGGGCGGCUAUAAACAGACCUCAGGCCCGAAGCGUGGCGGCACCUGCCGCCGGUGGUAAAAAAGAUCGGAAGAGCACACGUCU, the “aptazyme ON/OFF ratio” value came to 1.18.
The result for GGGUCGGGGGCCGAUAAUCGCGUGGAUAUGGCACGCAAGUUUCUACCGGGCACCGUAAAUGUCCGACUGGAGCCGUUCGGGCGGCUAUAAACAGACCUCAGGCCCGAAGCGUGGCGGCACCUGCCGCCGGUGGUAAAAAAGAUCGGAAGAGCACACGUCU reads 1.29.
GGGUCGGGGGCCAAUAAUCGCGUGGAUAUGGCACGCAAGUUUCUACCGGGCACCGUAAAUGUCCGACUGGAGCCGUUCGGGCGGCUAUAAACAGACCUCAGGCCCGAAGCGUGGCGGCACCUGCCGCCGGUGGUAAAAAAGAUCGGAAGAGCACACGUCU: the “aptazyme ON/OFF ratio” value was 1.02.
With GGGUCGGGGGCCUAUAAUCGCGUGGAUAUGGCACGCAAGUUUCUACCGGGCACCGUAAAUGUCCGACUGGAGCCGUUCGGGCGGCUAUAAACAGACCUCAGGCCCGAAGCGUGGCGGCACCUGCCGCCGGUGGUAAAAAAGAUCGGAAGAGCACACGUCU, the “aptazyme ON/OFF ratio” value was determined as 1.15.
Take GGGUCGGGGUAAUAUAAUCGCGUGGAUAUGGCACGCAAGUUUCUACCGGGCACCGUAAAUGUCCGACUGGAGCCGUUCGGGCGGCUAUAAACAGACCUCAGGCCCGAAGCGUGGCGGCACCUGCCGCCGGUGGUAAAAAAGAUCGGAAGAGCACACGUCU: the “aptazyme ON/OFF ratio” value stood at 1.15.
The result for GGGUCGGGGUAAGAUAAUCGCGUGGAUAUGGCACGCAAGUUUCUACCGGGCACCGUAAAUGUCCGACUGGAGCCGUUCGGGCGGCUAUAAACAGACCUCAGGCCCGAAGCGUGGCGGCACCUGCCGCCGGUGGUAAAAAAGAUCGGAAGAGCACACGUCU reads 1.02; that for GGGUCGGGGUAAAAUAAUCGCGUGGAUAUGGCACGCAAGUUUCUACCGGGCACCGUAAAUGUCCGACUGGAGCCGUUCGGGCGGCUAUAAACAGACCUCAGGCCCGAAGCGUGGCGGCACCUGCCGCCGGUGGUAAAAAAGAUCGGAAGAGCACACGUCU, 1.34; that for GGGUCGGGGGGUGAUAAUCGCGUGGAUAUGGCACGCAAGUUUCUACCGGGCACCGUAAAUGUCCGACUGGAGCCGUUCGGGCGGCUAUAAACAGACCUCAGGCCCGAAGCGUGGCGGCACCUGCCGCCGGUGGUAAAAAAGAUCGGAAGAGCACACGUCU, 1.13.
The result for GGGUCGGGGGGUAAUAAUCGCGUGGAUAUGGCACGCAAGUUUCUACCGGGCACCGUAAAUGUCCGACUGGAGCCGUUCGGGCGGCUAUAAACAGACCUCAGGCCCGAAGCGUGGCGGCACCUGCCGCCGGUGGUAAAAAAGAUCGGAAGAGCACACGUCU reads 1.13; that for GGGUCGGGGGGUUAUAAUCGCGUGGAUAUGGCACGCAAGUUUCUACCGGGCACCGUAAAUGUCCGACUGGAGCCGUUCGGGCGGCUAUAAACAGACCUCAGGCCCGAAGCGUGGCGGCACCUGCCGCCGGUGGUAAAAAAGAUCGGAAGAGCACACGUCU, 1.32; that for GGGUCGGGGUACCAUAAUCGCGUGGAUAUGGCACGCAAGUUUCUACCGGGCACCGUAAAUGUCCGACUGGAGCCGUUCGGGCGGCUAUAAACAGACCUCAGGCCCGAAGCGUGGCGGCACCUGCCGCCGGUGGUAAAAAAGAUCGGAAGAGCACACGUCU, 1.67.
In the case of GGGUCGGGGUACGAUAAUCGCGUGGAUAUGGCACGCAAGUUUCUACCGGGCACCGUAAAUGUCCGACUGGAGCCGUUCGGGCGGCUAUAAACAGACCUCAGGCCCGAAGCGUGGCGGCACCUGCCGCCGGUGGUAAAAAAGAUCGGAAGAGCACACGUCU it was 1.24.
As for GGGUCGGGGUACAAUAAUCGCGUGGAUAUGGCACGCAAGUUUCUACCGGGCACCGUAAAUGUCCGACUGGAGCCGUUCGGGCGGCUAUAAACAGACCUCAGGCCCGAAGCGUGGCGGCACCUGCCGCCGGUGGUAAAAAAGAUCGGAAGAGCACACGUCU, the “aptazyme ON/OFF ratio” value came out at 1.5.
